Data taken from US20230002466A1 (ELPIS BIOPHARMACEUTICALS, published 2023).
Substitutions are numbered along the chain they refer to.

T1: human IL2Rβ (human, UniProt P14784 27-239)
T1 construct: also called IL2β; CD122
T1 sequence (looked up): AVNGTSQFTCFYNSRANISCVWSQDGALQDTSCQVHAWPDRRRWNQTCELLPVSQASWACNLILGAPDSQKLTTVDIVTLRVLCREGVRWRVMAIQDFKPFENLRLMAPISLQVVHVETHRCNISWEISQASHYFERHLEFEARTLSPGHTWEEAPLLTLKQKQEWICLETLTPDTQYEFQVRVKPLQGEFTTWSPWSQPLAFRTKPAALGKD

T2: human IL2Rα Fc fusion protein (human, UniProt P01589 22-213, limits assumed)
T2 construct: also called Recombinant Fc-tagged human IL2Rα; not shown: Fc
T2 sequence (looked up): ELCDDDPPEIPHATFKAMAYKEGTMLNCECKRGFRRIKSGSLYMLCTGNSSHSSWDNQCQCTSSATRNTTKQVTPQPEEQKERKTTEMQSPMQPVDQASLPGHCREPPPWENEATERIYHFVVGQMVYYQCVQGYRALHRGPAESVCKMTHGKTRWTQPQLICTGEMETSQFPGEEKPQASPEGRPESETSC

T3: human IL2Rβ Fc fusion protein (human, UniProt P14784 27-239)
T3 construct: also called Recombinant Fc-tagged human IL2Rβ; not shown: Fc
T3 sequence (looked up): T1 sequence (looked up)

B1: EP242 (ligand)
chain: APTSSSTKKTQLQLEHLLLDLQMILNGINNYKNPKLTRMLTFKFYMPKKATELKHLQCLEEELKPLEEVLNLAQSKNFHLTARDAISNIRVIVQELKGSETTFMCEYADETATIVEFLNRWITFCQSIISTLT
notes: EP001 back-mutation clone; not shown: His and Flag tags
B2: EP247 (ligand)
chain: B1 chain with T81R, S87D
notes: not shown: His and Flag tags
B3: EP263 (ligand)
chain: B1 chain with S87D, Q94L
notes: not shown: His and Flag tags
B4: EP410 (ligand)
chain: B1 chain with R38V, Y45S, I86V, S87D, I89M, V93I
notes: not shown: His and Flag tags
B5: EP411 (ligand)
chain: APTSSSTKKTQLQLEHLLLDLQMILNGINNYKNPKLTVMLTFKFSMPKKATELKHLQCLEEELKPLEEVLNLAQSKNFHLGVTDSISNAIVLARELKGSETTFMCEYADETATIVEFLNRWITFCQSIISTLT
notes: not shown: His and Flag tags
B6: EP256 (ligand)
chain: B1 chain with A85L, S87D
notes: not shown: His and Flag tags
B7: EP251 (ligand)
chain: B1 chain with A82P, S87D, R90N, V93I
notes: not shown: His and Flag tags
B8: EP255 (ligand)
chain: B1 chain with A85L, S87D, R90N, V93I
notes: not shown: His and Flag tags
B9: EP254 (ligand)
chain: B1 chain with A85L, V93I
notes: not shown: His and Flag tags
B10: EP261 (ligand)
chain: B1 chain with S87D, R90N
notes: not shown: His and Flag tags
B11: EP262 (ligand)
chain: B1 chain with S87D, R90N, V93I, Q94L
notes: not shown: His and Flag tags
B12: EP352 (ligand)
chain: B1 chain with F42A, A82P, S87D, V93I, Q94L
notes: not shown: His and Flag tags
B13: EP344 (ligand)
chain: B1 chain with R38D, Y45S, A82P, S87D, V93I, Q94L
notes: not shown: His and Flag tags
B14: EP335 (ligand)
chain: B1 chain with K35S, F42G, A82P, S87D
notes: not shown: His and Flag tags
B15: EP348 (ligand)
chain: B1 chain with R38V, Y45S, A82P, S87D, V93I, Q94L
notes: not shown: His and Flag tags
B16: EP331 (ligand)
chain: B1 chain with K35G, R38E, A82P, S87D
notes: not shown: His and Flag tags
B17: EP334 (ligand)
chain: B1 chain with K35S, F42G, R90N, V93I
notes: not shown: His and Flag tags
B18: EP351 (ligand)
chain: B1 chain with F42A, A82P, S87D
notes: not shown: His and Flag tags
B19: EP336 (ligand)
chain: B1 chain with K35S, F42G, A82P, S87D, V93I, Q94L
notes: not shown: His and Flag tags
B20: EP342 (ligand)
chain: B1 chain with R38D, Y45S, R90N, V93I
notes: not shown: His and Flag tags
B21: EP343 (ligand)
chain: B1 chain with R38D, Y45S, A82P, S87D
notes: not shown: His and Flag tags
B22: EP332 (ligand)
chain: B1 chain with K35G, R38E, A82P, S87D, V93I, Q94L
notes: not shown: His and Flag tags
B23: EP330 (ligand)
chain: B1 chain with K35G, R38E, R90N, V93I
notes: not shown: His and Flag tags

Molecular target: T1, human IL2Rβ
Assay: SPR, IL2Rβ captured on Protein A chip
Description: The assay was run with Biacore T200 control software version 2.0. For each cycle, 1 ug/mL of human IL2Rβ was captured for 60 seconds at flow rate of 10 uL/min on flow cell 2 in 1×HBSP buffer on Protein A sensor chip. 100 nM of HIS and Flag tag purified each IL2 mutant was 2-fold serial diluted and injected onto both reference flow cell 1 and IL2Rβ captured flow cell 2 for 150 seconds at flow rate of 30 uL/min followed by washing for 300 seconds. The flow cells were then regenerated with Glycine pH2 for 60 seconds at a flow rate of 30 uL/min. The assay was set up with 8 serial diluted concentration points in 96-well format. The kinetics data was analyzed with Biacore T200 evaluation software 3.0. The specific binding response unit was derived from subtraction of binding to reference flow cell 1 from target flow cell 2 (FIGS. 16A-16F, Table 10).

Kd | koff | kon | Binder
7.16 nM | 0.0241 s⁻¹ | 3.36e+06 M⁻¹ s⁻¹ | B1
7.23 nM | 0.0304 s⁻¹ | 4.2e+06 M⁻¹ s⁻¹ | B2
2.79 nM | 0.0191 s⁻¹ | 6.84e+06 M⁻¹ s⁻¹ | B3

Molecular target: T1, human IL2Rβ
Assay: SPR, IL2Rβ captured on Protein A chip
Remark: another data set of the same source
Description: Kinetic analysis of the receptor binding activities of IL2Rβ agonist with IL2Rα reduced activity mutations have been assessed by SPR technology with Biacore T200. The assay was run with Biacore T200 control software version 2.0. For each cycle, 1 ug/mL of human IL2Rβ was captured for 60 seconds at flow rate of 10 ul/min on flow cell 2 in 1×HBSP buffer on Protein A sensor chip. 100 nM of HIS and Flag tag purified each IL2 mutant was 2 fold serial diluted and injected onto both reference flow cell 1 and IL2Rβ captured flow cell 2 for 150 seconds at flow rate of 30 ul/mins followed by wash for 300 seconds. The flow cells were then regenerated with Glycine pH2 for 60 seconds at flow rate of 30 ul/mins. The assay was set up with 8 serial diluted concentration points in 96 well format. The kinetics data was analyzed with Biacore T200 evaluation software 3.0. The specific binding response unit was derived from subtraction of binding to reference flow cell 1 from target flow cell 2.

Kd | koff | kon | Binder
0.827 nM | 0.00594 s⁻¹ | 7.19e+06 M⁻¹ s⁻¹ | B4
0.461 nM | 0.000839 s⁻¹ | 1.82e+06 M⁻¹ s⁻¹ | B5

Molecular target: T2, human IL2Rα Fc fusion protein
Assay: ELISA, receptor-Fc coated, anti-Flag HRP
Description: (§1) Briefly, 384 well plate was immobilized with human IL2Rα and IL2Rβ Fc fusion proteins at a final concentration of 2 ug/mL in 1×PBS in total volume of 25 uL per well. The plate was incubated overnight at 4 C and blocked with 80 uL of superblock per well for 1 hour. […] Each dilution was added to IL2Rα or IL2Rβ wells in parallel in duplicates. The IL2 mutant binding was detected by adding 25 uL of anti-Flag HRP diluted at 1:5000 in 1×PBST. In between each step, the plate was washed three times with 1×PBST using a plate washer. The plate was then developed with 25 uL of TMB substrate for five minutes and stopped by adding 25 ul of 2N sulfuric acid. The plate was read at OD450 nm Biotek plate reader and the EC50 was analyzed with Prism 8.1 software to generate EC50 values (FIG. 15A for IL2Rα, and FIG. 15B for IL2Rβ, summarized in Table 9).

EC50 | Binder
8.7 nM | B1
5.3 nM | B6
16.8 nM | B7
8.3 nM | B2
4.3 nM | B8
4.3 nM | B9
4.9 nM | B3
2.9 nM | B10
32.1 nM | B11

Molecular target: T3, human IL2Rβ Fc fusion protein
Assay: ELISA, receptor-Fc coated, anti-Flag HRP
Description: as §1

EC50 | Binder
5.7 nM | B1
362 nM | B6
2.5 nM | B7
4.7 nM | B2
360 nM | B8
556 nM | B9
1.3 nM | B3
124 nM | B10
53.2 nM | B11

Molecular target: T3, human IL2Rβ Fc fusion protein
Assay: ELISA, Fc-tagged receptor coated, anti-HisTag-HRP
Description: (§2) Recombinant Fc-tagged human IL2Rα and IL2Rβ were added in 25 uL of 1×PBS to wells of 384-well plate and incubated overnight at 4° C. to coat the plates. Plates were washed three times with 0.05% Tween20/1×PBS. Plates were blocked with 100 uL of SuperBlock for 1 hr at RT and then washed 3 times with 0.05% Tween20/1×PBS. IL2 mutants were diluted in 0.05% Tween 20/1×PBS from 1000 nM to 0 nM and added to plates for 2 hrs at room temperature. Plates were then washed 6 times with 0.05% Tween20/1×PBS. Anti-HisTag-HRP was diluted 1:5000 in 0.05% Tween20/1×PBS and added to plates for 1 hr at RT. Plates were then washed 6 times with 0.05% Tween 20/1×PBS, and TMB was added to develop blue color. Reactions were stopped with 2N […] and light absorbance at 450 nm was read on a BioTek plate reader.

EC50 | Binder
33.8 nM | B12
50.7 nM | B13
59.1 nM | B14
124 nM | B15
39.3 nM | B16
28.6 nM | B17
21.2 nM | B18
133 nM | B19
58.9 nM | B20
19.7 nM | B21
44 nM | B22

Molecular target: T2, human IL2Rα Fc fusion protein
Assay: ELISA, single point, Fc-tagged human IL2Rα coated, anti-His-HRP; concentration not printed (Example 14)
Description: as §2

binding result | Binder
no binding (tested: not printed) | B12
no binding (tested: not printed) | B13
no binding (tested: not printed) | B14
no binding (tested: not printed) | B15
no binding (tested: not printed) | B23
no binding (tested: not printed) | B16
no binding (tested: not printed) | B17
no binding (tested: not printed) | B18
no binding (tested: not printed) | B19
no binding (tested: not printed) | B20
no binding (tested: not printed) | B21
no binding (tested: not printed) | B22
